Reference: paper PMC314469, “Protein Interaction Networks by Proteome Peptide Scanning” (PLoS Biology, 2004)

T1: Abp1 SH3 (ABP1_YEAST), P15891
T1 chain: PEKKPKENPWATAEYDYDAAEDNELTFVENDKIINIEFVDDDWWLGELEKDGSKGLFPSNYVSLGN

T2: Boi1 SH3 (BOI1_YEAST), P38041
T2 chain: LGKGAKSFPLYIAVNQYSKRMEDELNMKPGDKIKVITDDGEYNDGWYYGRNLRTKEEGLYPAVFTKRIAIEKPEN

T3: Rvs167 SH3 (RV167_YEAST), P39743
T3 chain: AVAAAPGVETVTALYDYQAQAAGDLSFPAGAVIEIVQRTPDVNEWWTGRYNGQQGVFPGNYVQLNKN

T4: Yfr024 SH3 (LSB3_YEAST), P43603
T4 chain: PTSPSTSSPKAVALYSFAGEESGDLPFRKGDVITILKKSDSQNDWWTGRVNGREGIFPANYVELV

T5: Boi2 SH3 (BOI2_YEAST), P39969
T5 chain: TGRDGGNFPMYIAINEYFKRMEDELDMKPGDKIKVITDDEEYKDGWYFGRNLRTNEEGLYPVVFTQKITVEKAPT

T6: Yhr016c SH3 (YSC84_YEAST), P32793
T6 chain: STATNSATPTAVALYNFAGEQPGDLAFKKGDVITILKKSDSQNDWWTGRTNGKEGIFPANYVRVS


What was measured:
Assay in all cases: SPOT array
[1] = target: T1, Abp1 SH3 (ABP1_YEAST), P15891
[2] = target: T2, Boi1 SH3 (BOI1_YEAST), P38041
[3] = target: T3, Rvs167 SH3 (RV167_YEAST), P39743
[4] = target: T4, Yfr024 SH3 (LSB3_YEAST), P43603
[5] = target: T5, Boi2 SH3 (BOI2_YEAST), P39969
[6] = target: T6, Yhr016c SH3 (YSC84_YEAST), P32793

normalised SPOT signal, Boehringer light units (BLU); mean over the file's lines of this peptide [1] | normalised SPOT signal, Boehringer light units (BLU); mean over the file's lines of this peptide [2] | normalised SPOT signal, Boehringer light units (BLU); mean over the file's lines of this peptide [3] | normalised SPOT signal, Boehringer light units (BLU); mean over the file's lines of this peptide [4] | normalised SPOT signal, Boehringer light units (BLU); mean over the file's lines of this peptide [5] | normalised SPOT signal, Boehringer light units (BLU); mean over the file's lines of this peptide [6] | Binder
69.9 | – | – | – | – | – | NKLLPPHPFADKP [YGL143C 142-154]
179 | – | – | – | – | – | NKIKETLPREKKP [YMR255W 67-79]
– | 66.8 | 60.2 | 415 | 54.4 | 54.8 | NEYPSKPPKVKFPA [YDL064W 66-79]
– | 3640 | 14400 | 18800 | 1310 | 7790 | MVRPAPPRRADPEG [Q0297 11-24]
181 | – | – | – | – | – | NISIDYKPSRNKP [YKL126W 329-341]
270 | – | – | – | – | – | NKIETLDPALIRP [YDL007W 329-341]
– | 54 | 79.6 | 892 | 34.7 | 273 | MVLPPAPPKNSDPS [YFL036W 764-777]
0 | – | – | – | – | – | NKRDKKKKKYPRKP [YDR485C 329-342]
– | 187 | 163 | 620 | 88.4 | 768 | MVTPREPKKRTTRK [YPR052C 1-14]
– | 28.5 | 81.9 | 1430 | 54 | 352 | NANPFLPNKHPVTQ [YGR076C 38-51]
– | 2020 | 32.9 | 1870 | 48.5 | 288 | NAKPPLPIKAVTRP [YJL201W 440-453]
111 | – | – | – | – | – | NIQTIAMPLTTKP [YIL053W 16-28]
– | 24.7 | 9.7 | 207 | 5.7 | 225 | NINPKQPPKTSGEK [YMR179W 373-386]
– | 149 | 114 | 2650 | 85.1 | 361 | MVTPSKPPKKSVGF [YCL063W 147-160]
180 | – | – | – | – | – | NKPGWVVYPPPPKP [YML035C 220-233]
– | 119 | 106 | 6920 | 35.5 | 2580 | NHIPPFPLRFSFAQ [YDR421W 532-545]
– | 558 | 14300 | 11800 | 200 | 8020 | NAPPYVPQRSKQPD [YBR114W 165-178]
– | 76.1 | 48.6 | 2530 | 34.2 | 2090 | NEVPTTPVRLILGQ [YOR195W 2-15]
108 | – | – | – | – | – | NITVDYKPSKNKP [YMR104C 326-338]
– | 92.9 | 54.5 | 198 | 44.3 | 233 | NDDPVIPYKLSKDT [YHR164C 1037-1050]
– | 125 | 20.8 | 127 | 33.6 | 109 | NEGPEYPTKIEKNQ [YKL101W 777-790]
– | 37.5 | 0 | 84.4 | 93.6 | 77.6 | NIPPNSPGKLQLNT [YNR017W 123-136]
